Target: RIG-5 (construct not stated; SPR) (C. elegans)
Experiment: SPR

A Kd of 10 µM was found for “ZIG-8 (purified; construct not stated; SV-AUC and SPR) (from UniProt G5ED00 22-251) (natural protein)” in this work.
